The target of test [1] is T1, Mouse Id3: Histidine (mouse, UniProt P41133 1-119, limits assumed).
T1 construct: E. coli fusion protein (vector pGW07); also called m-Id3: His; not shown: His-tag
T1 sequence (looked up): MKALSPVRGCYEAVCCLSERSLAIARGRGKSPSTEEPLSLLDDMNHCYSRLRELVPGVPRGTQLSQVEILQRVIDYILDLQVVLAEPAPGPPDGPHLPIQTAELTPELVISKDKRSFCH
Briefly: ELISA, coated antigen; relative to human Id1. On the technique in general: In an ELISA, binding on a coated surface is turned into a signal by an enzyme label.

Test [2] deals with T2, Mouse Id1: Histidine (mouse, UniProt P20067-2 1-148).
T2 construct: E. coli fusion protein (vector pGW07); also called m-Id1-His; not shown: His-tag
T2 sequence: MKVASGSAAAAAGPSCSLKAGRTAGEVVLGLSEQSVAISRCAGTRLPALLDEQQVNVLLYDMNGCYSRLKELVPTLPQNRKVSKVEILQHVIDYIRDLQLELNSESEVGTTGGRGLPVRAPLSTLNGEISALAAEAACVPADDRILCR
In words: ELISA, coated antigen; relative to human Id1.

In test [3] the target is T3, Mouse Id2: Histidine (mouse, UniProt P41136 1-134, limits assumed).
T3 construct: E. coli fusion protein (vector pGW07); also called m-Id2: His; not shown: His-tag
T3 sequence (looked up): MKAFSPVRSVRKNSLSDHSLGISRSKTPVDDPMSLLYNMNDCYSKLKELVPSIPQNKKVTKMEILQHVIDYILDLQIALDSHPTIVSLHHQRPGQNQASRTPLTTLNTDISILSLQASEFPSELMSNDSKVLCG
In words: ELISA, coated antigen; relative to human Id1.

The target in test [4] is T4, Human Id2: Histidine (human, UniProt Q02363 1-134, limits assumed).
T4 construct: E. coli fusion protein (vector pGW07); also called h-Id2: His; not shown: His-tag
T4 sequence (looked up): T3 sequence (looked up) with T60S, V131A
In words: ELISA, coated antigen; relative to human Id1.

The target in test [5] is T5, Human Id4: Histidine (human, UniProt P47928 1-161, limits assumed).
T5 construct: E. coli fusion protein (vector pGW07); also called h-Id4: His; not shown: His-tag
T5 sequence (looked up): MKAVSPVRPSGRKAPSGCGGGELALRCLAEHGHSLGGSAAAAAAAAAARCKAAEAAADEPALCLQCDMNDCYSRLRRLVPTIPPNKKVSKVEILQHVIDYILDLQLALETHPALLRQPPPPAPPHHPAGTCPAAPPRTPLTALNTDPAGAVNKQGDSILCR
In words: ELISA, coated antigen; relative to human Id1.

The target of test [6] is T6, Human Id3: Histidine (human, UniProt Q02535 1-119, limits assumed).
T6 construct: E. coli fusion protein (vector pGW07); also called h-Id3: His; not shown: His-tag
T6 sequence (looked up): T1 sequence (looked up) with S31G, S33A, T34A, K112N
Briefly: ELISA, coated antigen; relative to human Id1.

Test [7] concerns the target T7, Mouse Id4: Histidine (mouse, UniProt P41139 1-161, limits assumed).
T7 construct: E. coli fusion protein (vector pGW07); also called m-Id4: His; not shown: His-tag
T7 sequence (looked up): T5 sequence (looked up) with H125L, T130A, A133V
In words: ELISA, coated antigen; relative to human Id1.

For test [8], the target named is Human Id1: Histidine (human) (UniProt P41134). In words: sandwich ELISA, 5-3-coated wells, human Id1:His 5.0 ng/ml, detected with rabbit polyclonal B-5133-HRP.
Test [9] shares this target. Briefly: sandwich ELISA, 5-3-coated wells, human Id1:His 0 ng/ml (blank), detected with rabbit polyclonal B-5133-HRP.
For test [10] the target is unchanged. Briefly: sandwich ELISA, 5-3-coated wells, human Id1:His 0.5 ng/ml, detected with rabbit polyclonal B-5133-HRP.
Test [11] shares this target. Briefly: sandwich ELISA, 5-3-coated wells, human Id1:His 10.0 ng/ml, detected with rabbit polyclonal B-5133-HRP.
For test [12] the target is unchanged. Briefly: ELISA, coated antigen, Ab 5.00 ug/ml.
Test [13] has the same target. Briefly: ELISA, coated antigen, Ab 0.10 ug/ml.
The target is the same in test [14]. Briefly: ELISA, coated antigen, Ab 10.0 ug/ml.
Test [15] has as its target T8, glutathione S-transferase (GST) (UniProt P08515 1-218 = GST).
T8 construct: Coated on wells as control for the fusion partner of the immunogen
Briefly: ELISA, coated antigen, Ab up to 10.0 ug/ml. A digest of the protocol: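 Wells were coated with glutathione S-transferase and handled by an ELISA protocol. Coating buffers were 0.2 M sodium phosphate pH 6.5 and 10 mM potassium phosphate pH 7.4, with BSA/sodium azide and sucrose solutions. Antibodies were applied up to 10.0 ug/ml. Bound rabbit antibody was detected with goat anti-rabbit IgG-HRP conjugate and bound mouse antibody with goat anti-mouse IgG-HRP conjugate.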

Where a chain is given by its changes, count along the chain named.

Sequence of Human Id1: Histidine (human) (P41134 whole entry): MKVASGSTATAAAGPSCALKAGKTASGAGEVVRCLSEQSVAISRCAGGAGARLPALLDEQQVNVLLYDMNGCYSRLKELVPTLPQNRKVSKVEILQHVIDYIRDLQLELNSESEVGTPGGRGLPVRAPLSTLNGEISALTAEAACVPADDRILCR
T8 sequence (P08515 whole entry, the tested form may be a part): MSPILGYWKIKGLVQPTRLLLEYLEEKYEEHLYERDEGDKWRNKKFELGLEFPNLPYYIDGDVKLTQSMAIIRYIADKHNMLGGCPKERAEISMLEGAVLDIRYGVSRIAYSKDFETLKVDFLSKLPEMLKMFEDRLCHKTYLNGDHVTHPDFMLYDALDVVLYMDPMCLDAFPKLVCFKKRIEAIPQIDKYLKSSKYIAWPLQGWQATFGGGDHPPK

As to “rabbit monoclonal anti-human Id1, clone #BCH-2/#5-3 (antibody)”, the Cross-reactivity (%) in [1], in test [2], in test [3], in test [4], in [5] and in test [6] was below 1% each time. Besides, the Cross-reactivity (%) in test [7] was below 1%. The A450 in [8] is 0.365 A450; in test [9], 0.046 A450; in test [10] it was 0.085 A450; in [11] it was 0.815 A450.

B1: rabbit monoclonal anti-mouse Id1, clone #BCH-1/#37-2 (antibody, V domains shown)
VH: QSVEESGGRLVTPGTPLTLTCKVSGFDINSYAMDWFRQAPGKGLEWIGMMSTRGNTYYTSWAKGRFTISKTSSTTVDLKMTSLTTEDTATYFCARGGLWGPGTLVTVSS
VL: RVLTQTASPVSAAVGGTVTINCQASQSVYNGNRLGWYQLKPGQSPKELIHDASTLASGVPSRFRGSGSGTQFTLTINDVQCDDAATYYCVGSYACSTGDCNVFGGGTEVVVK
notes: Rabbit IgG from hybridoma, Protein G purified; also called m Id1 MoAb 37-2; Rabbit Monoclonal Anti-Mouse Id1 (#37-2)
As to B1, the figures for the A450 in [12], in [13] and in test [14] were 0.153 A450, 0.061 A450 and 0.194 A450, respectively. In addition, the binding result in test [15] is on record as “no binding”.

(Values after US20060286609A1 (BIOCHECK, published 2006).)
